Source: patent US20240084031A1 (Seagen, published 2024)
Substitutions are numbered along the chain they refer to. Names may count otherwise.

Experiments:
[1] = molecular target: T1, human CD70 on CD70 positive cell lines (human, UniProt P32970 1-193); assay: cell-based or functional assay
T1 sequence (looked up): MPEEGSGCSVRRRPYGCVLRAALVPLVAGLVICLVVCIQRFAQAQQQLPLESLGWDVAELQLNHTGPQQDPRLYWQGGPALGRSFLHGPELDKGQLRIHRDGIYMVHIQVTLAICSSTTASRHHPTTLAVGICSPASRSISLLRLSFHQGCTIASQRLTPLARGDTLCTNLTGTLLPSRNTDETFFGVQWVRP

[2] = molecular target: T2, human FcγRI, full length on stably transfected CHO cells (human, UniProt P12314 16-374); assay: cell-based competition binding, flow cytometry (LSRII): serial dilutions of unlabelled competitor against 50 nM Alexa Fluor 488-labelled h1F6 IgG1 on CHO cells expressing human FcγRI
T2 construct: whole, on cells; also called CD64; Fcγ receptor I
T2 sequence (P12314 16-374): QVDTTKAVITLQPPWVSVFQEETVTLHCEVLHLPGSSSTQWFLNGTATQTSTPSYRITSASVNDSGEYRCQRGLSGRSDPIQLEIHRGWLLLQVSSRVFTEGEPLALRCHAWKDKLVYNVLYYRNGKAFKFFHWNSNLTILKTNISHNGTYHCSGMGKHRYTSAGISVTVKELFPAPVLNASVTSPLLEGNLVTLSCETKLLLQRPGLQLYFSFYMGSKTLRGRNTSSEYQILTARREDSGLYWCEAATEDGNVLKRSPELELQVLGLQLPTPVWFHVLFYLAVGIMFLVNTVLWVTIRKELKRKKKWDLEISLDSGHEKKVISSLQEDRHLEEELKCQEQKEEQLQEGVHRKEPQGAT
Description: (§1) Labeled cells were detected using an LSRII FACS analyzer.
(§2) Binding of humanized anti-CD70 (h1F6) antibody to CHO cells expressing full-length FcγRI was determined by competition binding. […] Labeled cells were detected using an LSRII FACS analyzer.

[3] = molecular target: T3, human FcγRIIIa, 158V (high affinity), full length on stably transfected CHO cells (human, UniProt P08637 17-254); assay: cell-based competition binding, flow cytometry (LSRII): serial dilutions of unlabelled competitor against 100 nM Alexa Fluor 488-labelled h1F6 IgG1 on CHO cells expressing human FcγRIIIa 158V
T3 construct: whole, on cells; CHO DG44 line '158V'; also called CD16
T3 sequence (P08637 17-254 F176V): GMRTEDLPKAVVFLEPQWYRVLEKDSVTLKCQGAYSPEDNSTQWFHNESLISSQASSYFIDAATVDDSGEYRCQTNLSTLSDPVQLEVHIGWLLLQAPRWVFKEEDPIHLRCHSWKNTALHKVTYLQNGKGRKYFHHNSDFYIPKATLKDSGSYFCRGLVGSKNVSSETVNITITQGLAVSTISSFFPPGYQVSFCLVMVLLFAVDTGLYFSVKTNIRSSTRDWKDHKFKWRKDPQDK
Description: as §1
(§3) Binding of variant humanized anti-CD70 (h1F6) antibodies to CHO cells expressing full-length FcγRIIIa was also determined by competition binding. […] Labeled cells were detected using an LSRII FACS analyzer.

[4] = molecular target: T1, human CD70 on CD70 positive cell lines; assay: 786-O cell binding, apparent KD of the IgG
[5] = molecular target: T1, human CD70 on CD70 positive cell lines; assay: 786-O cell binding; IC50 of the vcF2 conjugate over IC50 of the unconjugated IgG
[6] = molecular target: T2, human FcγRI, full length on stably …; assay: cell-based competition binding on CHO cells expressing full-length FcγRI, 'performed as described previously' (50 nM Alexa Fluor 488-labelled h1F6 IgG1)
Description: as §2
(§4) Binding of one of the variants, IgG1 S239C, to CHO cells expressing full-length FcγRIIIa and FcγRI was determined as described above. […] The control, parent antibody h1F6, binds to FcγRIIIa-expressing cells and FcγRI-expressing cells.

[7] = molecular target: T3, human FcγRIIIa, 158V (high affinity), …; assay: cell-based competition binding on CHO cells expressing full-length FcγRIIIa, 'performed as described previously' (158V line, 100 nM Alexa Fluor 488-labelled h1F6 IgG1); the sheet says only FcγRIIIA
Description: as §3, §4

[8] = molecular target: T1, human CD70 on CD70 positive cell lines; assay: saturation binding of europium-labelled antibody to CD70+ ACHN cells (apparent KD)
From the text: (§5) Humanized 1F6 antibody derivatives HDLA (hVHD and hVLA), HHLA (hVHH and hVLA), and HJLA (hVHJ and hVLA), and c1F6 were transiently expressed in 293 cells, labeled with europium using the Eu-N1 iodoacetamido chelate (Perkin Elmer), and analyzed for saturation binding to a panel of CD70 positive cell lines as described in detail in U.S. Patent Application No. 60/673,070, filed Apr. 19, 2005; and PCT International Publication No. WO 2006/113909.

[9] = molecular target: T1, human CD70 on CD70 positive cell lines; assay: saturation binding of europium-labelled antibody to CD70+ 786-O cells (apparent KD)
From the text: as §5

[10] = molecular target: T1, human CD70 on CD70 positive cell lines; assay: saturation binding of europium-labelled antibody to CD70+ Caki-1 cells (apparent KD)
From the text: as §5

[11] = molecular target: T1, human CD70 on CD70 positive cell lines; assay: saturation binding of europium-labelled antibody to CD70+ Caki-2 cells (apparent KD)
From the text: as §5

B1: h1F6 HJLA-F8 (HJLA conjugated to vcMMAF, eight drug units per antibody) (antibody, human IgG1, kappa)
heavy: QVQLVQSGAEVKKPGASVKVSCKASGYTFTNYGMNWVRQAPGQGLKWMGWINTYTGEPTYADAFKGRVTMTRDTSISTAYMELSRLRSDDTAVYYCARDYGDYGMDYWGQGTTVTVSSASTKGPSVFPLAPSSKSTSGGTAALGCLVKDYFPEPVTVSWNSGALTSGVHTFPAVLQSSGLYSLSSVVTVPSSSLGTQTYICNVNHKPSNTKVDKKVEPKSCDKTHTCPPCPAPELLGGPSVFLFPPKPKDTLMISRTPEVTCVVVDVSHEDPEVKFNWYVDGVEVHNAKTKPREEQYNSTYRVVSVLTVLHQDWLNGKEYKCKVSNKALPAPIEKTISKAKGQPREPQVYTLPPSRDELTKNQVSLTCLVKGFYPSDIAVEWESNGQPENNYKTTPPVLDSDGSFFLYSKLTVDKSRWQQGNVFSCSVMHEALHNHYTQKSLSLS
light: DIVMTQSPDSLAVSLGERATINCRASKSVSTSGYSFMHWYQQKPGQPPKLLIYLASNLESGVPDRFSGSGSGTDFTLTISSLQAEDVAVYYCQHSREVPWTFGQGTKVEIKRTVAAPSVFIFPPSDEQLKSGTASVVCLLNNFYPREAKVQWKVDNALQSGNSQESVTEQDSKDSTYSLSSTLTLSKADYEKHKVYACEVTHQGLSSPVTKSFNRGEC
modifications: vcMMAF conjugated, loading level of eight drug units per antibody; attachment residues not stated
cytotoxicity IC50 (mean, n = 3), 786-O cells [1]: 3.03 ng/mL
cytotoxicity IC50 (mean, n = 3), Caki-1 cells [1]: 2.3 ng/mL
cytotoxicity IC50, 786-O cells [1]: 3.4 ng/mL
cytotoxicity IC50, Caki-1 cells [1]: 2.2 ng/mL

B2: h1F6 HMLA-F8 (humanized 1F6 derivative HMLA, hVHM and hVLA, conjugated to vcMMAF, eight drug units per antibody) (antibody, human IgG1, kappa, V domains shown)
VH: QVQLVQSGAEVKKPGASVKVSCKASGYTFTNYGMNWVRQAPGQGLKWMGWINTYTGEPTYADAFKGRFAFSLDTSTSTAYMELRSLRSDDTAVYYCARDYGDYGMDYWGQGTTVTVSS
VL: DIVMTQSPDSLAVSLGERATINCRASKSVSTSGYSFMHWYQQKPGQPPKLLIYLASNLESGVPDRFSGSGSGTDFTLTISSLQAEDVAVYYCQHSREVPWTFGQGTKVEIKR
modifications: vcMMAF conjugated, loading level of eight drug units per antibody; attachment residues not stated
cytotoxicity IC50 (mean, n = 3), 786-O cells [1]: 2.03 ng/mL
cytotoxicity IC50 (mean, n = 3), Caki-1 cells [1]: 2.07 ng/mL
cytotoxicity IC50, 786-O cells [1]: 2.8 ng/mL
cytotoxicity IC50, Caki-1 cells [1]: 1.8 ng/mL

B3: c1F6(293)-F8 (c1F6 conjugated to vcMMAF, eight drug units per antibody) (antibody, V domains shown)
VH: QIQLVQSGPEVKKPGETVKISCKASGYTFTNYGMNWVKQAPGKGLKWMGWINTYTGEPTYADAFKGRFAFSLETSASTAYLQINNLKNEDTATYFCARDYGDYGMDYWGQGTSVTVSS
VL: DIVLTQSPASLAVSLGQRATISCRASKSVSTSGYSFMHWYQQKPGQPPKLLIYLASNLESGVPARFSGSGSGTDFTLNIHPVEEEDAATYYCQHSREVPWTFGGGTKLEIKR
modifications: vcMMAF conjugated, loading level of eight drug units per antibody; attachment residues not stated
cytotoxicity IC50 (mean, n = 3), 786-O cells [1]: 1.45 ng/mL
cytotoxicity IC50 (mean, n = 3), Caki-1 cells [1]: 2.17 ng/mL
cytotoxicity IC50, 786-O cells [1]: 2.4 ng/mL
cytotoxicity IC50, Caki-1 cells [1]: 1.8 ng/mL

B4: h1F6 HELA-F8 (humanized 1F6 derivative HELA, hVHE and hVLA, conjugated to vcMMAF, eight drug units per antibody) (antibody, human IgG1, kappa, V domains shown)
VH: B2 VH with K46E, F68V, A69T, F70M, S71T, L72R, T76I, R84S, S85R
VL: B2 VL
modifications: vcMMAF conjugated, loading level of eight drug units per antibody; attachment residues not stated
cytotoxicity IC50 (mean, n = 3), 786-O cells [1]: 3.9 ng/mL
cytotoxicity IC50 (mean, n = 3), Caki-1 cells [1]: 2.87 ng/mL
cytotoxicity IC50, 786-O cells [1]: 5.2 ng/mL
cytotoxicity IC50, Caki-1 cells [1]: 3.4 ng/mL

B5: h1F6 HHLA-F8 (HHLA conjugated to vcMMAF, eight drug units per antibody) (antibody, human IgG1, kappa, V domains shown)
VH: B2 VH with K46E, M81L, E82Q, L83I, R84N
VL: B2 VL
modifications: vcMMAF conjugated, loading level of eight drug units per antibody; attachment residues not stated
cytotoxicity IC50 (mean, n = 3), 786-O cells [1]: 1.93 ng/mL
cytotoxicity IC50 (mean, n = 3), Caki-1 cells [1]: 1.87 ng/mL
cytotoxicity IC50, 786-O cells [1]: 2.3 ng/mL
cytotoxicity IC50, Caki-1 cells [1]: 1.4 ng/mL

B6: h1F6 IgG1 vcMMAF(4) antibody drug conjugate (antibody)
heavy: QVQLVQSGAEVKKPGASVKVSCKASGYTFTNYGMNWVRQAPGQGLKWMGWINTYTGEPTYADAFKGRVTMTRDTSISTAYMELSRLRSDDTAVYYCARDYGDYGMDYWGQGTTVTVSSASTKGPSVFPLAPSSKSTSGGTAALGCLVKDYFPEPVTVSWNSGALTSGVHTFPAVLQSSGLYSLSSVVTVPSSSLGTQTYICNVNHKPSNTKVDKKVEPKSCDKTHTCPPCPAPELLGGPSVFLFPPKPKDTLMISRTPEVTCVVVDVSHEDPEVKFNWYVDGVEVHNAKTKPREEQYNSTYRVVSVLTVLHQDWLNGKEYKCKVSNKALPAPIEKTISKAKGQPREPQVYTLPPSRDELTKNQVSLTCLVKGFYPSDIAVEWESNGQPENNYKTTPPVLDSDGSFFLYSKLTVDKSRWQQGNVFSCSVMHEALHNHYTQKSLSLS
light: B1 light
modifications: vcMMAF conjugated, mean loading of 4 drugs/antibody; attachment residues not stated
notes: also called h1F6 G1-vcMMAF(4); IgG1-F4
binding result [2]: binds
binding result [3]: binds

B7: h1F6 IgG4 (IgG4 isotype variant of h1F6 HJLA) (antibody)
heavy: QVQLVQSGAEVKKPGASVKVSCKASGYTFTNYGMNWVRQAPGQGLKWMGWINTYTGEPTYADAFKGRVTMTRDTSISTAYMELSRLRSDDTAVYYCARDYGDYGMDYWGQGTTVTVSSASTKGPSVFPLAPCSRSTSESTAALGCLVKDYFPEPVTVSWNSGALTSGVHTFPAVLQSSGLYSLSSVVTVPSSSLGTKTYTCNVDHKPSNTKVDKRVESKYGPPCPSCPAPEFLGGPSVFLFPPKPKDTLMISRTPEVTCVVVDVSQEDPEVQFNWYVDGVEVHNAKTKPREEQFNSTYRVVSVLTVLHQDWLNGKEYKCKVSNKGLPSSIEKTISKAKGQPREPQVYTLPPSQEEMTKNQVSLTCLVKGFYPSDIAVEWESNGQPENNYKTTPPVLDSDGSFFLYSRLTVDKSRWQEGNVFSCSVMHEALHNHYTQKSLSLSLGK
light: B1 light
notes: also called h1F6 G4
IC50 (read off the curve) [2]: ~30000 pM

B8: h1F6 IgG4 vcMMAF(4) antibody drug conjugate (antibody)
heavy: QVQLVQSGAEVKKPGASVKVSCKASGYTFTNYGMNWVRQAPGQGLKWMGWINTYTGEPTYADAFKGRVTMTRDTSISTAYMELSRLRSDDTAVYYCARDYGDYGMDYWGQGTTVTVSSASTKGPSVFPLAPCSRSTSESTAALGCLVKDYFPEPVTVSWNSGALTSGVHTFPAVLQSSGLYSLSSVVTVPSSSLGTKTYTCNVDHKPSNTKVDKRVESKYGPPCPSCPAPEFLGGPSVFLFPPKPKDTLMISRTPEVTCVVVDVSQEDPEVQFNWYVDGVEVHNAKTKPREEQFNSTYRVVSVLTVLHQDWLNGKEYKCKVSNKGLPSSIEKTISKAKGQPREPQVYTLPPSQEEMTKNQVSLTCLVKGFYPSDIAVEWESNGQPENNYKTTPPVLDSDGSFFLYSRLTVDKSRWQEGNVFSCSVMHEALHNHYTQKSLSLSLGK
light: B1 light
modifications: vcMMAF conjugated, mean loading of 4 drugs/antibody; attachment residues not stated
notes: also called h1F6 G4-vcMMAF(4); IgG4-F4
IC50 (read off the curve) [2]: ~10000 pM

B9: h1F6 IgG1 A327C (antibody)
heavy: not shown
light: B1 light
Kd [4]: 500 pM

B10: h1F6 IgG1 A327C-vcF2 (conjugate in Table 8) (antibody)
heavy: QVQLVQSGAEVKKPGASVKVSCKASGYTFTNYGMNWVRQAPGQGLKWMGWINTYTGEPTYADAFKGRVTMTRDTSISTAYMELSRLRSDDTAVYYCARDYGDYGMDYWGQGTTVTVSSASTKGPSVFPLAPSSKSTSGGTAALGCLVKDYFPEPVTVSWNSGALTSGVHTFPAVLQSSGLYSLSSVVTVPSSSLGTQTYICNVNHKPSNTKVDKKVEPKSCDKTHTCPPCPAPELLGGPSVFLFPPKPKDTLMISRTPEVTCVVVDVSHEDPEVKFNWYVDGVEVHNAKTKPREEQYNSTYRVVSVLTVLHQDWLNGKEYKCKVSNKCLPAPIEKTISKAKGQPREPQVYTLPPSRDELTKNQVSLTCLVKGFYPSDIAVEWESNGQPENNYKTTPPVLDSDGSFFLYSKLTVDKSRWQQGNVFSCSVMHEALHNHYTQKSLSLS
light: B1 light
modifications: vcF2 as printed (taken as vcMMAF, 2 drugs/antibody); attachment residues not stated
notes: Position 327 is Fc (EU) numbering; also called IgG1 A327C IgG-vcF2
IC50 IgG-vcF2 / IC50 IgG [5]: 1.1 ratio

B11: h1F6 IgG1 D265C (antibody)
heavy: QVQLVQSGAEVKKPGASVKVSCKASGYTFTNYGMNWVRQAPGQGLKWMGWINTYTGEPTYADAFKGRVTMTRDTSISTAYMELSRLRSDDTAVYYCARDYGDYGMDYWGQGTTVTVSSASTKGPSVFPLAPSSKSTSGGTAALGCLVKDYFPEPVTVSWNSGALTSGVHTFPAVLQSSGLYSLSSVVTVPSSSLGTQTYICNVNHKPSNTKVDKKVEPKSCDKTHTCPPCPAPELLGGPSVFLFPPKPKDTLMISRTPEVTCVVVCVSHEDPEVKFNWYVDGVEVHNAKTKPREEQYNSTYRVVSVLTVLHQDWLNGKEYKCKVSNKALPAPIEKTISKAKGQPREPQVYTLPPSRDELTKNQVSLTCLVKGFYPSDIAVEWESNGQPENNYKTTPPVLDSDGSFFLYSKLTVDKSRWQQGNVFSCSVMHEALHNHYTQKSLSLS
light: B1 light
Kd [4]: 1100 pM

B12: h1F6 IgG1 D265C-vcF2 (conjugate in Table 8) (antibody)
heavy: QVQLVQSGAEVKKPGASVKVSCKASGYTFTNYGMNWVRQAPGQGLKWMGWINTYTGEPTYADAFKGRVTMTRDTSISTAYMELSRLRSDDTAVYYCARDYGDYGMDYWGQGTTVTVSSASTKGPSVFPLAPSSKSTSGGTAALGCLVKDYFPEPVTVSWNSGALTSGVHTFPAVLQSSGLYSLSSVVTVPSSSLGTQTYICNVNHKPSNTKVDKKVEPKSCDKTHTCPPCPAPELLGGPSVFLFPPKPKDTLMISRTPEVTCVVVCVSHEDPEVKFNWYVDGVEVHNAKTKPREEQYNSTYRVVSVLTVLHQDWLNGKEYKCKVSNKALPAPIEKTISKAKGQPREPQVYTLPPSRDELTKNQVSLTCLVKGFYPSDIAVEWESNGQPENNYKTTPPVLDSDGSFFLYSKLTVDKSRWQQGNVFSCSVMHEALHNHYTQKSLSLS
light: B1 light
modifications: vcF2 as printed (taken as vcMMAF, 2 drugs/antibody); attachment residues not stated
notes: Position 265 is Fc (EU) numbering; also called IgG1 D265C IgG-vcF2
IC50 IgG-vcF2 / IC50 IgG [5]: 0.9 ratio

B13: h1F6 IgG1 E269C (antibody)
heavy: not shown
light: B1 light
Kd [4]: 800 pM

B14: h1F6 IgG1 E269C-vcF2 (conjugate in Table 8) (antibody)
heavy: not shown
light: B1 light
modifications: vcF2 as printed (taken as vcMMAF, 2 drugs/antibody); attachment residues not stated
notes: Position 269 is Fc (EU) numbering; also called IgG1 E269C IgG-vcF2
IC50 IgG-vcF2 / IC50 IgG [5]: 0.9 ratio

B15: h1F6 IgG1 S239C (antibody)
heavy: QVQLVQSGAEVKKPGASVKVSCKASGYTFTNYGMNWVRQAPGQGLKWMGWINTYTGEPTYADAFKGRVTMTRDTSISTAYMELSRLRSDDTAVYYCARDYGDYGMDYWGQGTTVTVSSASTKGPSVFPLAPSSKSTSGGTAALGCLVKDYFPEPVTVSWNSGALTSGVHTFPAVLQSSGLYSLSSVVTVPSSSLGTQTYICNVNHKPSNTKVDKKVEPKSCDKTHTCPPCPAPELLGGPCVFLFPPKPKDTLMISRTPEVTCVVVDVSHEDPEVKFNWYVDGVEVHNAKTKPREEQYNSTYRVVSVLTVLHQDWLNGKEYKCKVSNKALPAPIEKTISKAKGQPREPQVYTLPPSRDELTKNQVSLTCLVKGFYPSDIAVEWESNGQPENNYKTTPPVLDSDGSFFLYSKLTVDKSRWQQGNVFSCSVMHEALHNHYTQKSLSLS
light: B1 light
Kd [4]: 1000 pM
IC50 (read off the curve) [6]: ~10000 pM
binding result [7]: binds

B16: h1F6 IgG1 S239C conjugated to vcMMAF (average of 2 drugs/antibody) (antibody)
heavy: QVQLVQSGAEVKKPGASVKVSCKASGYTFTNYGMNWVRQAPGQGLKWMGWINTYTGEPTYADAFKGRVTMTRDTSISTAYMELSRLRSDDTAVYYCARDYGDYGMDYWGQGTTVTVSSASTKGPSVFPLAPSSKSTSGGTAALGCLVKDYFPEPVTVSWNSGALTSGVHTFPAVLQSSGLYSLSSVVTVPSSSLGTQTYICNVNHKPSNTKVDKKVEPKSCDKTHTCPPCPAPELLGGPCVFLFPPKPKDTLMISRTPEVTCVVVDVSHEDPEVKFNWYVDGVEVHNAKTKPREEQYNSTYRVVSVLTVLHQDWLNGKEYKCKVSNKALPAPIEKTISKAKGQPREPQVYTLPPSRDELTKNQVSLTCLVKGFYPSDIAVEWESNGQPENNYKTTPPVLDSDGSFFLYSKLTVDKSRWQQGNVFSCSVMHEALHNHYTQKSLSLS
light: B1 light
modifications: vcMMAF conjugated, average of 2 drugs/antibody; attachment residues not stated for the material tested
notes: also called IgG1 S239C vcMMAF; IgG1 S239C IgG-vcF2
IC50 IgG-vcF2 / IC50 IgG [5]: 1.1 ratio
IC50 (read off the curve) [6]: ~8000 pM
binding result [7]: binds

B17: c1F6 (chimeric derivative of the anti-CD70 murine monoclonal antibody 1F6) (antibody, V domains shown)
VH: B3 VH
VL: B3 VL
notes: also called chimeric 1F6
Kd [8]: 300 pM
Kd [9]: 560 pM
Kd [10]: 1280 pM
Kd [11]: 260 pM

B18: humanized 1F6 antibody derivative HDLA (hVHD and hVLA) (antibody, human IgG1, kappa, V domains shown)
VH: B2 VH with K46E, F68V, A69T, F70M, S71T, L72T
VL: B2 VL
notes: Heavy chain is hVH-D + hIgG1 constant domain; also called h1F6 HDLA
Kd [8]: 1440 pM
Kd [9]: 550 pM
Kd [10]: 1290 pM
Kd [11]: 860 pM

B19: humanized 1F6 antibody derivative HHLA (hVHH and hVLA) (antibody, V domains shown)
VH: B2 VH with K46E, M81L, E82Q, L83I, R84N
VL: B2 VL
notes: Heavy chain is hVH-H + hIgG1 constant domain; also called h1F6 HHLA
Kd [8]: 290 pM
Kd [9]: 280 pM
Kd [10]: 1220 pM
Kd [11]: 150 pM

B20: h1F6 IgG1-vcF2 (conjugate of h1F6 IgG1 in Table 8) (antibody)
heavy: not shown
light: B1 light
modifications: vcF2 as printed (taken as vcMMAF, 2 drugs/antibody); attachment residues not stated
notes: Its preparation is not described; also called IgG1 IgG-vcF2
IC50 IgG-vcF2 / IC50 IgG [5]: 1.3 ratio
